We go through 25 molecules from US20230381333A1 (HANMI PHARM, published 2023).

Bridge positions count the residues as written; N and C are the ends. Square brackets hold non-standard residues; d marks the D form. Ends that are not written are not given here. * marks the point of attachment. Acetyl(2-(4-imidazolyl)) = O=C(Cc1c[nH]cn1)*; Aib = CC(C)(N)C(=O)O Where only a bound is given, the exact number is not on record here.

Common to all, as to test: cell-based or functional assay
The target in experiment [1] is human GCG receptor (human, UniProt P47871 26-477).
Experiment [2] concerns the target human GLP-1 receptor (human, UniProt P43220 24-463).
Experiment [3] addresses T1, human GIP receptor (human, UniProt P48546 22-466).
T1 sequence (looked up): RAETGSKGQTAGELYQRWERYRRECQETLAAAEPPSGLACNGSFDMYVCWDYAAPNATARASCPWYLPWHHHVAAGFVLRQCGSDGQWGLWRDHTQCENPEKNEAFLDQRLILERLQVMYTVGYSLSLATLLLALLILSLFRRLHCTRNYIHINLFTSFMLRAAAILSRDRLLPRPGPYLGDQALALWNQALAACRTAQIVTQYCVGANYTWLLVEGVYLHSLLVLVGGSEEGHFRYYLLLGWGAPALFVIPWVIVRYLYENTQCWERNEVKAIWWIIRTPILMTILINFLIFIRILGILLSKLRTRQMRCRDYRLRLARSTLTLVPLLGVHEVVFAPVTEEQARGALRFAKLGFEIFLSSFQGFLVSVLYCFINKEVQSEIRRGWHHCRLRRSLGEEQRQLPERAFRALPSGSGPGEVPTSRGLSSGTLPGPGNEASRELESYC

Chain of human GCG receptor (P47871 26-477): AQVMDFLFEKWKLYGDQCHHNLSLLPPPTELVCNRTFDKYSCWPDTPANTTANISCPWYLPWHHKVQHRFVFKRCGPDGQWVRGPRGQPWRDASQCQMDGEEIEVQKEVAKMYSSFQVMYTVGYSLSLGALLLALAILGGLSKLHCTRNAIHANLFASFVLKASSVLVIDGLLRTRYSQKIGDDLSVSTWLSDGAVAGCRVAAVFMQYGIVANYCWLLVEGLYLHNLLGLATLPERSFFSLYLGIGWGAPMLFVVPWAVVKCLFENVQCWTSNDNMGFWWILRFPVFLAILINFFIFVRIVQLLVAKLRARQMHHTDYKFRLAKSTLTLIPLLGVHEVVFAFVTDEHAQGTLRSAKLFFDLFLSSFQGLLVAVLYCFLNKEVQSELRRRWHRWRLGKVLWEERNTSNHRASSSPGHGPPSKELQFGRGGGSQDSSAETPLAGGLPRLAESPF

On to Y[Aib]QGTFTSDYSKCLDEKRAKDFVQWLLDHHPSSGQPPPS (bridge 16-20) [triple agonist of SEQ ID NO: 70], for which, in experiment [1], the “In vitro activity compared to native-type peptide (%), vs Glucagon” value (shortened to “In vitro activity … (%), vs Glucagon”) was 71.3%. In addition, in experiment [2], the “In vitro activity compared to native-type peptide (%), vs GLP-1” value (“In vitro activity … (%), vs GLP-1” for short) stood at 15.1%. In experiment [3], the “In vitro activity compared to native-type peptide (%), vs GIP” value (“In vitro activity … (%), vs GIP” for short) was 64.4%.
{Acetyl(2-(4-imidazolyl))}-[Aib]QGTFTSDYSKYLDECRAKEFVQWLLDHHPSSGQPPPS (bridge 15-19) [triple agonist of SEQ ID NO: 73]: the “In vitro activity … (%), vs Glucagon” value in experiment [1] is 5.4%. Further, in experiment [2], the “In vitro activity … (%), vs GLP-1” value was 22.6%. The “In vitro activity … (%), vs GIP” value in experiment [3] is 3%.
The corresponding values for Y[Aib]QGTFTSDYSKYLDEKAAKDFVQWLLDHHPSSGQPPPSC (bridge 16-20) [triple agonist of SEQ ID NO: 77] are 12.2%, 38.7% and 35.5%.
For H[Aib]QGTFTSDYSKYLDEKRQKEFVQWLLNTKC (bridge 16-20) [triple agonist of SEQ ID NO: 58], the “In vitro activity … (%), vs Glucagon” value in experiment [1] is 2.6%. The “In vitro activity … (%), vs GLP-1” value in experiment [2] worked out at 39.1%. Also, the “In vitro activity … (%), vs GIP” value in experiment [3] is 0.2%.
Regarding Y[Aib]QGTFTSDYSKYLDECAAKDFVQWLLDHHPSSGQPPPS (also: ring formation (underlined residues), positions not given here) [triple agonist of SEQ ID NO: 67], the “In vitro activity … (%), vs Glucagon” value in experiment [1] amounted to 46.2%. In addition, in experiment [2], the “In vitro activity … (%), vs GLP-1” value was 28.5%. The “In vitro activity … (%), vs GIP” value in experiment [3] was 39.8%.
The matching figures for H[Aib]QGTFTSDYSKCLDEKRAKEFVQWLLDHHPSSGQPPPS (bridge 16-20) [triple agonist of SEQ ID NO: 65]: 25.2%, 95.4% and 11.6%.
For the molecule {Acetyl(2-(4-imidazolyl))}-[Aib]QGTFTSDYSKCLDEKRAKEFVQWLLDHHPSSGQPPPS (bridge 15-19) [triple agonist of SEQ ID NO: 74], the “In vitro activity … (%), vs Glucagon” value in experiment [1] is 0.9%. For the same molecule, in experiment [2], the “In vitro activity … (%), vs GLP-1” value is 12.9%. For the same molecule, the “In vitro activity … (%), vs GIP” value in experiment [3] came out at 1%.
On to {Acetyl(2-(4-imidazolyl))}-[Aib]QGTFTSDYSIAMDEKHCKDFVNWLLNTK (bridge 15-19) [triple agonist of SEQ ID NO: 60], for which, in experiment [1], the “In vitro activity … (%), vs Glucagon” value is under 0.1%. Besides, the “In vitro activity … (%), vs GLP-1” value in experiment [2] stood at 106%. Also, the “In vitro activity … (%), vs GIP” value in experiment [3] is 8.2%.
The corresponding values for H[Aib]QGTFTSDYSKYLDEKRQKEFVQWLLDTKC (bridge 16-20) [triple agonist of SEQ ID NO: 78] are 14%, 51% and 0.12%.
Regarding {Acetyl(2-(4-imidazolyl))}-[Aib]QGTFTSDYSICMDEKHQKDFVNWLLNTK (bridge 15-19) [triple agonist of SEQ ID NO: 59], the “In vitro activity … (%), vs Glucagon” value in experiment [1] was under 0.1%. For the same molecule, in experiment [2], the “In vitro activity … (%), vs GLP-1” value stood at 40.3%. Further, the “In vitro activity … (%), vs GIP” value in experiment [3] amounted to 4%.
The matching figures for {Acetyl(2-(4-imidazolyl))}-[Aib]QGTFTSDYSIAMDEIACKDFVNWLLNTK (bridge 15-19) [triple agonist of SEQ ID NO: 61]: under 0.1%, 59.8% and 2.8%.
As for Y[Aib]QGTFTSDCSKYLDERAAKDFVQWLLDHHPSSGQPPPS (bridge 16-20) [triple agonist of SEQ ID NO: 72], in experiment [1], the “In vitro activity … (%), vs Glucagon” value amounted to 1%. In experiment [2], the “In vitro activity … (%), vs GLP-1” value was determined as 11.5%. Besides, the “In vitro activity … (%), vs GIP” value in experiment [3] amounted to 1.6%.
The matching figures for H[Aib]QGTFTSDVSKYLDGQAAQEFVAWLLKGC [triple agonist of SEQ ID NO: 8]: 0.1%, 14.2% and under 0.1%.
The corresponding values for H[Aib]QGTFTSDVSKYLDGQAAKEFVAWLLKGC [triple agonist of SEQ ID NO: 7] are under 0.1%, 13.7% and under 0.1%.
The corresponding values for Y[Aib]QGTFTSDYSKCLDEKAAKEFVQWLLDHHPSSGQPPPS (bridge 16-20) [triple agonist of SEQ ID NO: 68] are 8.8%, 27.9% and 107%.
In the case of {Acetyl(2-(4-imidazolyl))}-[Aib]QGTFTSDCSKYLDERAAQDFVQWLLDGGPSSGAPPPS [triple agonist of SEQ ID NO: 63], the “In vitro activity … (%), vs Glucagon” value in experiment [1] was under 0.1%. Moreover, in experiment [2], the “In vitro activity … (%), vs GLP-1” value worked out at 15.3%. The “In vitro activity … (%), vs GIP” value in experiment [3] was under 0.1%.
For Y[Aib]QGTFTSDYSKCLDERAAKEFVQWLLDHHPSSGQPPPS (bridge 16-20) [triple agonist of SEQ ID NO: 69], the “In vitro activity … (%), vs Glucagon” value in experiment [1] worked out at 9.6%. For the same molecule, the “In vitro activity … (%), vs GLP-1” value in experiment [2] is 24.3%. Further, the “In vitro activity … (%), vs GIP” value in experiment [3] was found to be 62.8%.
On to Y[Aib]QGTFTSDYSKYLDECRAKDFVQWLLDHHPSSGQPPPS (bridge 16-20) [triple agonist of SEQ ID NO: 66], for which the “In vitro activity … (%), vs Glucagon” value in experiment [1] worked out at 172%. In addition, the “In vitro activity … (%), vs GLP-1” value in experiment [2] came out at 15.8%. Besides, the “In vitro activity … (%), vs GIP” value in experiment [3] amounted to 17.2%.
The corresponding values for H[Aib]EGTFTSDYSIAMDEIHQKDFVNWLLAQKC (bridge 16-20) [triple agonist of SEQ ID NO: 79] are 4.9%, 41.5% and 1.4%.
The matching figures for Y[Aib]QGTFTSDYSKYLDECAAKEFVQWLLDHHPSSGQPPPS (bridge 16-20) [triple agonist of SEQ ID NO: 64]: 60.1%, 64.6% and 92.9%.
The matching figures for Y[Aib]QGTFTSDYSKYLDEKAAKEFVQWLLDHHPSSGQPPPSC (bridge 16-20) [triple agonist of SEQ ID NO: 75]: 8.5%, 35.1% and 18%.
Turning to Y[Aib]QGTFTSDYSKYLDERACKDFVQWLLDHHPSSGQPPPS (bridge 16-20) [triple agonist of SEQ ID NO: 71], the “In vitro activity … (%), vs Glucagon” value in experiment [1] came out at 12.7%. For the same molecule, the “In vitro activity … (%), vs GLP-1” value in experiment [2] turned out to be 90.1%. Further, the “In vitro activity … (%), vs GIP” value in experiment [3] amounted to 94.7%.
Turning to {Acetyl(2-(4-imidazolyl))}-[Aib]QGTFTSDKSKYLDERAAQDFVQWLLDGGPSSGAPPPS [triple agonist of SEQ ID NO: 62], the “In vitro activity … (%), vs Glucagon” value in experiment [1] is under 0.1%. The “In vitro activity … (%), vs GLP-1” value in experiment [2] was 5.2%. Also, the “In vitro activity … (%), vs GIP” value in experiment [3] is under 0.1%.
As to H[Aib]QGTFTSDYSIAMDEIHQKDFVNWLLNTC (bridge 16-20) [triple agonist of SEQ ID NO: 57], the “In vitro activity … (%), vs Glucagon” value in experiment [1] is under 0.1%. Besides, in experiment [2], the “In vitro activity … (%), vs GLP-1” value is 11.7%. In addition, in experiment [3], the “In vitro activity … (%), vs GIP” value stood at 0.3%.
The corresponding values for Y[Aib]QGTFTSDYSKYLDEKRAKDFVQWLLDHHPSSGQPPPSC (bridge 16-20) [triple agonist of SEQ ID NO: 76] are 47.6%, 10.3% and 11.7%.
